The values that follow come from PMC8866402.

For this experiment, the target named is N-His6-fortilin (human) (UniProt P13693). Nature of the experiment: SPR; Biacore 3000, 25 °C, HBS-EPS (0.01 M HEPES, 0.5 M NaCl, 3 mM EDTA, 0.005% Tween 20, pH 7.4), 20 μL/min; forms of rh-fortilin amine-coupled to a CM5 chip; rh-TGF-β1 injected (0 to 200 nM; 100 nM for scouting).
N-His6-fortilin (human), sequence (P13693 whole entry): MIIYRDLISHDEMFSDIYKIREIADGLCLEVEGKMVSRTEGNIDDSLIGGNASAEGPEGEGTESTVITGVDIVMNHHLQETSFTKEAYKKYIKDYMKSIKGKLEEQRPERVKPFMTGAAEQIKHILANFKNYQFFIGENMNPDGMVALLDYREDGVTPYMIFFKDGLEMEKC

Usually Kd stands for the concentration at which binding is half-saturated. A low value points to higher affinity. In the case of “recombinant human TGF-β1 produced in-house (ligand)”, the dissociation constant Kd stood at 210 nM.
